Results published in PMC4975667.

Biological target: Human full-length BAX (1–192) wild type, recombinant (human) (UniProt Q07812)

- Kd: 32 µM
Substance: Human full-length BAX (1–192) wild type, recombinant (from UniProt Q07812 1-192) (natural protein)
